Assay results taken from patent US20170146518A1 (CENTRE NATIONAL DE LA RECHERCHE SCIENTIFIQUE CNRS, published 2017).
Non-standard residues stand in square brackets, D forms with d. No end group written: not given here. pGlu = O=C1CC[C@@H](C(=O)O)N1; Nle = CCCC[C@H](N)C(=O)O

Key:
[1] = target: T1, HA-APJ (transfected in HEK-293T cells) (human, UniProt P35414 1-380); assay: radioligand binding, membranes of HEK-293T transfected with APJ or with APJ and GP130
T1 construct: HA-APJ construct from Dr. L. Zheng (Chun et al., 2008); also called APJ-HA; APJ-expression plasmid; not shown: HA tag
T1 sequence: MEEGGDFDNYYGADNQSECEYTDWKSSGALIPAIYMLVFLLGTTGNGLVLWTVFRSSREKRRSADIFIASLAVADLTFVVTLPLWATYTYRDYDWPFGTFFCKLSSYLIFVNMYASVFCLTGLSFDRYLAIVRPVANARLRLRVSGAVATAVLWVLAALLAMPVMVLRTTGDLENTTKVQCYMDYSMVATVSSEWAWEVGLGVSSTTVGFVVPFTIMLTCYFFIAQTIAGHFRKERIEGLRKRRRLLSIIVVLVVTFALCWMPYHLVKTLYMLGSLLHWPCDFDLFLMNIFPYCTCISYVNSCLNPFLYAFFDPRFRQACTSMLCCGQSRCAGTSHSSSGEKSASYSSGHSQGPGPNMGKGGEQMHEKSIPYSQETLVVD
Experimental: Homogenates were cleared by 5 min centrifugation at 3000 rpm. Then cells were resuspended in binding buffer ([…] Hepes, 5 mM MgCl2 and 1% BSA) and ultracentrifuged to obtain cell membranes. Membranes were then incubated with [125I][<Glu65,Nle75,Tyr77]apelin-13 (Perkin Elmer) in 100 μl of the binding buffer at room temperature for 90 min. In order to determine the amounts of nonspecific binding, unlabeled [<Glu65,Nle75,Tyr77] apelin-13 (Sigma) was simultaneously added After incubation, bound and free radioactivities were separated through rapid filtration using the glass-fiber filter units (GF/C, Packard Instrument Co.) of a cell harvester (Packard). Filter units were completely dried, and Microcinti O (Packard) was added to each well. The radioactivity of each well was counted with a TopCount liquid scintillation counter (Packard). The dissociation constant (Kd) and the number of binding sites (B max) were determined by the method of Scatchard.

[2] = target: T2, APJ (endogenous, in patient-derived GSCs) (human, UniProt P35414 1-380); assay: radioactive binding assay in GSCs using GP130-siRNA and anti-GP130 antibodies
T2 construct: Endogenous receptor of patient-derived glioblastoma stem-like cells, tested on intact cells, in membrane preparations or in lysates; also called Apelin receptor; APLNR
T2 sequence: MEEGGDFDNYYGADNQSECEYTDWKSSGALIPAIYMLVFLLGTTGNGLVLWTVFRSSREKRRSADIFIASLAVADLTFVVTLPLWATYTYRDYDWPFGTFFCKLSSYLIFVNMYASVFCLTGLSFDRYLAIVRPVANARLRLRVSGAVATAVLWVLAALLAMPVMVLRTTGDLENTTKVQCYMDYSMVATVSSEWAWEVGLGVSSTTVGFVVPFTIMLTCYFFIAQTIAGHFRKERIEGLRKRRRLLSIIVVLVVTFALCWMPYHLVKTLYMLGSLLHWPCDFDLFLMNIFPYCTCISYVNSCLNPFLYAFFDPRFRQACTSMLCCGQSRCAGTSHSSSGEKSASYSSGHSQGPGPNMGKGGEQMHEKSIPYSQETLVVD
Experimental: Prior to binding experiments, 2×10⁶ GSCs were washed three times with DMEM/F12, and resuspended in binding buffer (DMEM/F12, 40 mM HEPES, 1% BSA). In order to determine the amount of nonspecific binding, 1 μM unlabeled [<Glu⁶⁵, Nle⁷⁵, Tyr⁷⁷]apelin-13 was added. Cells were pre-incubated with GP130 blocking antibody (2 μg/ml) when indicated. Cells were then incubated with 400 pM [¹²⁵I][<Glu⁶⁵,Nlc⁷⁵,Tyr⁷⁷]apelin-13 in agitation for 6 h at 4° C., and radioactivity was measured with a gamma counter (Beckman).

[pGlu]RPRLSHKGP[Nle]PY (also: 125I label, place not given here) [[125I][<Glu65,Nle75,Tyr77]apelin-13]
binding result [1]: binds
binding result [2]: binds
